Reference: patent US20240010735A1 (EISAI R AND D MANAGEMENT, published 2024)

Columns and labels:
Assay in all cases: ELISA: SEAP-His proteins (1 nM) captured on anti-6-His antibody, antibody B 10 µg/mL with human IgG 100 µg/mL, HRP anti-human IgG, OD450 as % of human EphA4-SEAP-His
[1] = target: T1, human EphA5 extracellular region-SEAP-His protein (human, UniProt P54756 25-573)
T1 construct: extracellular domain; also called Eph receptor extracellular region-SEAP-His protein; not shown: secretory alkaline phosphatase (SEAP); histidine tag

[2] = target: T2, human EphB4 extracellular region-SEAP-His protein (human, UniProt P54760 16-539)
T2 construct: extracellular domain; also called Eph receptor extracellular region-SEAP-His protein; not shown: secretory alkaline phosphatase (SEAP); histidine tag
T2 sequence (looked up): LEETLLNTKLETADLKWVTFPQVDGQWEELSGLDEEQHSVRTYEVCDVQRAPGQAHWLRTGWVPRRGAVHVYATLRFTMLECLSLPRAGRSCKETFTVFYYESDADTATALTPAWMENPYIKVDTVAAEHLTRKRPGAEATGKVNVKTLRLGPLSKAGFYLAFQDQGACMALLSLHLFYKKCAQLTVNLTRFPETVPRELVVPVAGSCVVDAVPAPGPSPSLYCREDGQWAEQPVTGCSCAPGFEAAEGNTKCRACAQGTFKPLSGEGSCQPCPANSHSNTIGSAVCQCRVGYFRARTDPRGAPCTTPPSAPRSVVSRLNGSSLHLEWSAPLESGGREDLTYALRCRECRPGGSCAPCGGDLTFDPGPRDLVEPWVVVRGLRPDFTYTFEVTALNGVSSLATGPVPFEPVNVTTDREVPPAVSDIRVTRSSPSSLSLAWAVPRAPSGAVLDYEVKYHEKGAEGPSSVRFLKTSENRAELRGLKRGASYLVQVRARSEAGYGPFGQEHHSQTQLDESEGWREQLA

[3] = target: T3, human EphA2 extracellular region-SEAP-His protein (human, UniProt P29317 24-537)
T3 construct: extracellular domain; also called Eph receptor extracellular region-SEAP-His protein; not shown: secretory alkaline phosphatase (SEAP); histidine tag

[4] = target: T4, human EphB6 extracellular region-SEAP-His protein (human, UniProt O15197 32-594)
T4 construct: extracellular domain; also called Eph receptor extracellular region-SEAP-His protein; not shown: secretory alkaline phosphatase (SEAP); histidine tag
T4 sequence (looked up): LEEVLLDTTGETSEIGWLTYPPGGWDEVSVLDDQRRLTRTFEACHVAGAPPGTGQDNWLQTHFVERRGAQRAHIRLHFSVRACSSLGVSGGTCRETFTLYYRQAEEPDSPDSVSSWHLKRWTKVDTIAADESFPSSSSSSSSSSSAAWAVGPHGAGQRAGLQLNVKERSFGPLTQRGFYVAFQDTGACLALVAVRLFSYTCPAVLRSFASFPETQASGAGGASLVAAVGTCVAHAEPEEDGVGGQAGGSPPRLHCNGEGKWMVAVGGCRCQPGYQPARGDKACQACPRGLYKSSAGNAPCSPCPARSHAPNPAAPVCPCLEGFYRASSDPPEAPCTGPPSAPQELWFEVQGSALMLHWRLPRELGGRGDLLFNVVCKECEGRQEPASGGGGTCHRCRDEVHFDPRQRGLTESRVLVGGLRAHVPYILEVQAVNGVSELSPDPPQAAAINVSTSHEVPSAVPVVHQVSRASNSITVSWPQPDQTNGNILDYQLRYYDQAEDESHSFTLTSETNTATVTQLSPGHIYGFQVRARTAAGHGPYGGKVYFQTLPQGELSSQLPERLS

[5] = target: T5, human EphB1 extracellular region-SEAP-His protein (human, UniProt P54762 18-540)
T5 construct: extracellular domain; also called Eph receptor extracellular region-SEAP-His protein; not shown: secretory alkaline phosphatase (SEAP); histidine tag
T5 sequence (looked up): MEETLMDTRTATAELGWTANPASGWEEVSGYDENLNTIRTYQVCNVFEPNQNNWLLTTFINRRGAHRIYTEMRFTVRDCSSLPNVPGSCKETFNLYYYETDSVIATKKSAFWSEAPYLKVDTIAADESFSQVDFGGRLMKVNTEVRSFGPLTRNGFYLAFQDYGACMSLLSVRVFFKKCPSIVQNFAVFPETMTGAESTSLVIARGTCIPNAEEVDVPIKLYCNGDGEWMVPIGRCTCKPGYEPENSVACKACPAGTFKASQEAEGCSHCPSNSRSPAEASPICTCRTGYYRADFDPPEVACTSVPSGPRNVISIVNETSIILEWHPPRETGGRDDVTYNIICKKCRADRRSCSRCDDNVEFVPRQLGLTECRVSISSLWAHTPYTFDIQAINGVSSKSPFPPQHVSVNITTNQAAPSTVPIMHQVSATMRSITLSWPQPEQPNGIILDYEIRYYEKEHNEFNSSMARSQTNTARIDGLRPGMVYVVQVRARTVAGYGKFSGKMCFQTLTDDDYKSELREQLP

Measured: binding result

T3 sequence (P29317 24-537): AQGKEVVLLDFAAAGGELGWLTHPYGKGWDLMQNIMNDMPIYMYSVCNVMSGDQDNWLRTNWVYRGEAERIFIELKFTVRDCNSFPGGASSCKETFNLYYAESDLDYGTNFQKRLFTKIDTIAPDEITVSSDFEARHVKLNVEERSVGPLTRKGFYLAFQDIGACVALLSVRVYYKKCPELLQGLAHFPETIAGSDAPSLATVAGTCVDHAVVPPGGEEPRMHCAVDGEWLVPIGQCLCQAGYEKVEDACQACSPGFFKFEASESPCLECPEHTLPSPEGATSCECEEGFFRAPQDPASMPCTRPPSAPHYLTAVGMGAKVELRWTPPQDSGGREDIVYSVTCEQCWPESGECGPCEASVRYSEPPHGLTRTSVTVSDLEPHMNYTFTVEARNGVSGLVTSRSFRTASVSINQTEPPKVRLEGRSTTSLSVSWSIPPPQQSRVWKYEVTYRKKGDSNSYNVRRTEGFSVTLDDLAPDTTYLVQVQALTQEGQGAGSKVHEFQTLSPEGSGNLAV
T1 sequence (P54756 25-573): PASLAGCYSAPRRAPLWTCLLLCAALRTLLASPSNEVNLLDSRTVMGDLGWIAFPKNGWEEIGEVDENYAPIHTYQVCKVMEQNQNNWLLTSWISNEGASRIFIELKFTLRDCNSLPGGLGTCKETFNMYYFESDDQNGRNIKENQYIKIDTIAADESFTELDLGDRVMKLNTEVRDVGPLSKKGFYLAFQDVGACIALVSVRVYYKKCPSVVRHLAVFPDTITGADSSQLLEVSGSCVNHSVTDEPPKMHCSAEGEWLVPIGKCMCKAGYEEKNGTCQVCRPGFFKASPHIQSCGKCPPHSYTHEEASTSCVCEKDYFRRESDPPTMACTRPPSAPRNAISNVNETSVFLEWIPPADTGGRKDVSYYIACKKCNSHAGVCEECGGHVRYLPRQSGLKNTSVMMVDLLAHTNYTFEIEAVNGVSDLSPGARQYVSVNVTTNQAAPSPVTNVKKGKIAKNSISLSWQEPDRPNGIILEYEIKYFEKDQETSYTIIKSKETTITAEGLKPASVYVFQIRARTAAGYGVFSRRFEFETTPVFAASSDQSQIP

B1: humanized anti-EphA4 monoclonal antibody (antibody B) (antibody, human IgG2, V domains shown)
VH: QVQLVESGGGVVQPGRSLRLSCAVSGFSLTRFGVHWVRQAPGKGLEWVAVIWRGGSTDYNAAFMSRLTISKDNSKNTVYLQMNSLRAEDTAVYYCAKESLFGVYYDYGYYSMDYWGQGTTVTVSS
VL: DIQMTQSPSSLSASVGDRVTITCRASQEISGYLSWLQQKPGKAPKRLIYAASTLDSGVPSRFSGSRSGTEYTLTISSLQPEDFATYYCLQYASYPLTFGGGTKVEIKR
notes: expressed in Expi293F cells; also called humanized antibody of antibody A; HK2-42 / L1-8
no binding (tested: 10 µg/mL): all assays above
